# Assay results from paper PMC8767186.
# Target: Spc105-mCherry (S. cerevisiae) (UniProt P53148)
# Test: co-IP; RFP-Trap beads (Chromotek) on cleared yeast lysates in buffer H 0.15 (25 mM HEPES pH 8.0, 150 mM KCl, 0.1% IGEPAL), overnight; blots with anti-GFP and anti-DsRed; band intensities by ImageJ, normalised to full length, input and Spc105 IP
# Sequence of UniProt P53148 (P53148 whole entry): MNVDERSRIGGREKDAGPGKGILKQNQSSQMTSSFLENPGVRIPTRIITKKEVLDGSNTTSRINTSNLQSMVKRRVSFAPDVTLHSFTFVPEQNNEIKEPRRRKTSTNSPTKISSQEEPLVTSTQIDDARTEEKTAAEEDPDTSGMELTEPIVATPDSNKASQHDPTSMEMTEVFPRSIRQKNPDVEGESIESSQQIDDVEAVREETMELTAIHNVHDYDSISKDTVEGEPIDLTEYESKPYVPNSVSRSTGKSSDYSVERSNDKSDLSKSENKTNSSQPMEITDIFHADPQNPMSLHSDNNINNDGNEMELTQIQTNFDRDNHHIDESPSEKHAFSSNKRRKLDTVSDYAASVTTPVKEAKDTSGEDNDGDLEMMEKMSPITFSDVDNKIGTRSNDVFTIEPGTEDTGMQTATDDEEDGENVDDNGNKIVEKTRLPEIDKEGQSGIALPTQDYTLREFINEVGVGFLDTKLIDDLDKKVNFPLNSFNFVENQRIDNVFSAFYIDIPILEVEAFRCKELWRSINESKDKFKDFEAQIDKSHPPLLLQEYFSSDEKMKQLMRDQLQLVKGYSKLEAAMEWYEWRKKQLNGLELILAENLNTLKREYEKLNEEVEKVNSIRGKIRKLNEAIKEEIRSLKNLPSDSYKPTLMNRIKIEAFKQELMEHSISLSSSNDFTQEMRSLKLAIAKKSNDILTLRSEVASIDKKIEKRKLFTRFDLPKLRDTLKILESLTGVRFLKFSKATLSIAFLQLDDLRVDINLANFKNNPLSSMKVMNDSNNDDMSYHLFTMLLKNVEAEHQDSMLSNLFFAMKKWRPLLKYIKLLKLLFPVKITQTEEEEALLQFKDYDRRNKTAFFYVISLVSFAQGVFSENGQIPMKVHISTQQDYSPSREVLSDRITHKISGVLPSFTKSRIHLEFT
substance,measurement,value
GFP-kre28^Δ127–182 (from UniProt Q04431 1-385) (natural protein),reduction of co-precipitation against full-length Kre28,40%
